Laboratory results taken from IntAct's records for PubMed 31515488.

B1: E3 ubiquitin-protein ligase TRIM69 (Homo sapiens), Q86WT6 (parent)
chain: MEVSTNPSSNIDPGDYVEMNDSITHLPSKVVIQDITMELHCPLCNDWFRDPLMLSCGHNFCEACIQDFWRLQAKETFCPECKMLCQYNNCTFNPVLDKLVEKIKKLPLLKGHPQCPEHGENLKLFSKPDGKLICFQCKDARLSVGQSKEFLQISDAVHFFTEELAIQQGQLETTLKELQTLRNMQKEAIAAHKENKLHLQQHVSMEFLKLHQFLHSKEKDILTELREEGKALNEEMELNLSQLQEQCLLAKDMLVSIQAKTEQQNSFDFLKDITTLLHSLEQGMKVLATRELISRKLNLGQYKGPIQYMVWREMQDTLCPGLSPLTLDPKTAHPNLVLSKSQTSVWHGDIKKIMPDDPERFDSSVAVLGSRGFTSGKWYWEVEVAKKTKWTVGVVRESIIRKGSCPLTPEQGFWLLRLRNQTDLKALDLPSFSLTLTNNLDKVGIYLDYEGGQLSFYNAKTMTHIYTFSNTFMEKLYPYFCPCLNDGGENKEPLHILHPQ
B2: Prolyl 4-hydroxylase subunit alpha-3 (Homo sapiens), Q7Z4N8 (parent)
chain: MGPGARLAALLAVLALGTGDPERAAARGDTFSALTSVARALAPERRLLGLLRRYLRGEEARLRDLTRFYDKVLSLHEDSTTPVANPLLAFTLIKRLQSDWRNVVHSLEASENIRALKDGYEKVEQDLPAFEDLEGAARALMRLQDVYMLNVKGLARGVFQRVTGSAITDLYSPKRLFSLTGDDCFQVGKVAYDMGDYYHAIPWLEEAVSLFRGSYGEWKTEDEASLEDALDHLAFAYFRAGNVSCALSLSREFLLYSPDNKRMARNVLKYERLLAESPNHVVAEAVIQRPNIPHLQTRDTYEGLCQTLGSQPTLYQIPSLYCSYETNSNAYLLLQPIRKEVIHLEPYIALYHDFVSDSEAQKIRELAEPWLQRSVVASGEKQLQVEYRISKSAWLKDTVDPKLVTLNHRIAALTGLDVRPPYAEYLQVVNYGIGGHYEPHFDHATSPSSPLYRMKSGNRVATFMIYLSSVEAGGATAFIYANLSVPVVRNAALFWWNLHRSGEGDSDTLHAGCPVLVGDKWVANKWIHEYGQEFRRPCSSSPED
partner: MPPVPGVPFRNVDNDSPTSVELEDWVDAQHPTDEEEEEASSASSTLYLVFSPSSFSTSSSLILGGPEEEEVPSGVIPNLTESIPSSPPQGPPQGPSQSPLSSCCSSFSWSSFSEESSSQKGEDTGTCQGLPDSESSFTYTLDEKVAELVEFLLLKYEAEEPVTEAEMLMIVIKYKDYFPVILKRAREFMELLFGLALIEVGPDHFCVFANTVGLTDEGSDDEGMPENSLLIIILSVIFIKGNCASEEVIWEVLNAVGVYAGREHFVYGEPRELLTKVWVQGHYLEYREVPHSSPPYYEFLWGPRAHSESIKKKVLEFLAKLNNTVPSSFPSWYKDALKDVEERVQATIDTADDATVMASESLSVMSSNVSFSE
B3: Bcl-2-interacting killer (Homo sapiens), Q13323 (parent)
chain: MSEVRPLSRDILMETLLYEQLLEPPTMEVLGMTDSEEDLDPMEDFDSLECMEGSDALALRLACIGDEMDVSLRAPRLAQLSEVAMHSLGLAFIYDQTEDIRDVLRSFMDGFTTLKENIMRFWRSPNPGSWVSCEQVLLALLLLLALLLPLLSGGLHLLLK
partner: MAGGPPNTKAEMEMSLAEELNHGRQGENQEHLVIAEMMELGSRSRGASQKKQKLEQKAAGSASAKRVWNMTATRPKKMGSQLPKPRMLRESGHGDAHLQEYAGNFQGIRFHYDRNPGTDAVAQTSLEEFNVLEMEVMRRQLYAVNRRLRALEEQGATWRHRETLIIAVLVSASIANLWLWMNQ
B4: Serine/arginine-rich splicing factor 4 (Homo sapiens), Q08170 (parent)
chain: MPRVYIGRLSYQARERDVERFFKGYGKILEVDLKNGYGFVEFDDLRDADDAVYELNGKDLCGERVIVEHARGPRRDGSYGSGRSGYGYRRSGRDKYGPPTRTEYRLIVENLSSRCSWQDLKDYMRQAGEVTYADAHKGRKNEGVIEFVSYSDMKRALEKLDGTEVNGRKIRLVEDKPGSRRRRSYSRSRSHSRSRSRSRHSRKSRSRSGSSKSSHSKSRSRSRSGSRSRSKSRSRSQSRSRSKKEKSRSPSKEKSRSRSHSAGKSRSKSKDQAEEKIQNNDNVGKPKSRSPSRHKSKSKSRSRSQERRVEEEKRGSVSRGRSQEKSLRQSRSRSRSKGGSRSRSRSRSKSKDKRKGRKRSREESRSRSRSRSKSERSRKRGSKRDSKAGSSKKKKKEDTDRSQSRSPSRSVSKEREHAKSESSQREGRGESENAGTNQETRSRSRSNSKSKPNLPSESRSRSKSASKTRSRSKSRSRSASRSPSRSRSRSHSRS
B5: Transcriptional repressor p66-beta (Homo sapiens), Q8WXI9 (parent)
chain: MDRMTEDALRLNLLKRSLDPADERDDVLAKRLKMEGHEAMERLKMLALLKRKDLANLEVPHELPTKQDGSGVKGYEEKLNGNLRPHGDNRTAGRPGKENINDEPVDMSARRSEPERGRLTPSPDIIVLSDNEASSPRSSSRMEERLKAANLEMFKGKGIEERQQLIKQLRDELRLEEARLVLLKKLRQSQLQKENVVQKTPVVQNAASIVQPSPAHVGQQGLSKLPSRPGAQGVEPQNLRTLQGHSVIRSATNTTLPHMLMSQRVIAPNPAQLQGQRGPPKPGLVRTTTPNMNPAINYQPQSSSSVPCQRTTSSAIYMNLASHIQPGTVNRVSSPLPSPSAMTDAANSQAAAKLALRKQLEKTLLEIPPPKPPAPLLHFLPSAANSEFIYMVGLEEVVQSVIDSQGKSCASLLRVEPFVCAQCRTDFTPHWKQEKNGKILCEQCMTSNQKKALKAEHTNRLKNAFVKALQQEQEIEQRLQQQAALSPTTAPAVSSVSKQETIMRHHTLRQAPQPQSSLQRGIPTSARSMLSNFAQAPQLSVPGGLLGMPGVNIAYLNTGIGGHKGPSLADRQREYLLDMIPPRSISQSISGQK

Variants of: B1
Settings: with at5g1_human ATP5MC1, P05496
Sequence of at5g1_human ATP5MC1, P05496 (P05496 whole entry): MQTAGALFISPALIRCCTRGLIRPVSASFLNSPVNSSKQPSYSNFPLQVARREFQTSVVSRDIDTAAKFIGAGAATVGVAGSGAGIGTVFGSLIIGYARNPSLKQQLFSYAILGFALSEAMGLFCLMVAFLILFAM

effect of a mutation on the interaction | Variant
disrupting interaction strength | N239K
with no effect | A190V
with no effect | I399F
with no effect | Q301H

Variants of: B1
Settings: with maga4_human MAGEA4, P43358
Sequence of maga4_human MAGEA4, P43358 (P43358 whole entry): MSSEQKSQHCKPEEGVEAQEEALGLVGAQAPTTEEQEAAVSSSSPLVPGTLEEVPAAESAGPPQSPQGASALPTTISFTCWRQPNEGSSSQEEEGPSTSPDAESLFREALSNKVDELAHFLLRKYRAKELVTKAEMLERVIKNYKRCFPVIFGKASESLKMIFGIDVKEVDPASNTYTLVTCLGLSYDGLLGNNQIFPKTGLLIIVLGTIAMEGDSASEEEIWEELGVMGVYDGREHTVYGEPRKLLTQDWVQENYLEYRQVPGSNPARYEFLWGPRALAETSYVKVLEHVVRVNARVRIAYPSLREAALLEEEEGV

effect of a mutation on the interaction | Variant
with no effect | N239K
with no effect | A190V
with no effect | I399F
with no effect | Q301H

Variants of: B2
Settings: with magc2_human MAGEC2, Q9UBF1

effect of a mutation on the interaction | Variant
disrupting interaction strength | S378L

Variants of: B3
Settings: with fate1_human FATE1, Q969F0

effect of a mutation on the interaction | Variant
with no effect | D69E

Variants of: B4
Settings: with srsf6_human SRSF6, Q13247
Sequence of srsf6_human SRSF6, Q13247 (Q13247 whole entry, looked up): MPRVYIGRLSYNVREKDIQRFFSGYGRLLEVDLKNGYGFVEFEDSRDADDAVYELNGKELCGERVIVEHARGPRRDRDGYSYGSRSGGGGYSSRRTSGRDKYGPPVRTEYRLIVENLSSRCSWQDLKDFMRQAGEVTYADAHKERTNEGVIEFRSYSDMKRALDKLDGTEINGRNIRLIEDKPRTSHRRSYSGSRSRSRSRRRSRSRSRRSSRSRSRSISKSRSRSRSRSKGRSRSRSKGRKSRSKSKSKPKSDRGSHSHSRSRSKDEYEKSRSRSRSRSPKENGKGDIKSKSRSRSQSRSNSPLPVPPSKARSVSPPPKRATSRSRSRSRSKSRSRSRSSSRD

effect of a mutation on the interaction | Variant
with no effect | G338A

Variants of: B5
Settings: with traf1_human TRAF1, Q13077
Sequence of traf1_human TRAF1, Q13077 (Q13077 whole entry): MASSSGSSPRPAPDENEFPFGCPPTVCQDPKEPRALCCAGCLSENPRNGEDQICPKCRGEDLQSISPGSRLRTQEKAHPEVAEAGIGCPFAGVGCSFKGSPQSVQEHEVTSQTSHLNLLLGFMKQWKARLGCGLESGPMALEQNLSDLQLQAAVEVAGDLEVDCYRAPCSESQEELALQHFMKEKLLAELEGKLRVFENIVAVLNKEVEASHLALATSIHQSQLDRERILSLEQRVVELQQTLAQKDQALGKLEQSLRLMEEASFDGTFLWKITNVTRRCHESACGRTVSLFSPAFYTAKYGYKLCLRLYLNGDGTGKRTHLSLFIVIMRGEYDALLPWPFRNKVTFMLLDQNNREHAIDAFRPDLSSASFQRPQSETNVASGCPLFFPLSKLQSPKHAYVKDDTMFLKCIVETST

effect of a mutation on the interaction | Variant
with no effect | A490V
